According to patent US20070196376A1:

Legend:
[1] = target: mouse insulin (mouse); assay: ELISA on mouse insulin; No Ag well 0.10
[2] = target: rat insulin (rat); assay: ELISA on rat insulin; No Ag well 0.10

Chain of mouse insulin (mouse) (P01308 whole entry): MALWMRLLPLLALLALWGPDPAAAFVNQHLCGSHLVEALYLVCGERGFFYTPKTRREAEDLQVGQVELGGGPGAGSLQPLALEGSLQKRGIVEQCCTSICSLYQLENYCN

OD 450 [1]: 2.52 OD 450
OD 450 [2]: 3.06 OD 450
Substance: positive control anti-rat insulin antibody
